Test results as given in PMC3960220, “1,2-β-Oligoglucan Phosphorylase from Listeria innocua” (PLoS ONE, 2014).

Test system: O=P(O)(O)O[C@H]1O[C@H](CO)[C@@H](O)[C@H](O)[C@H]1O
Test: phosphate release, Lowry and Lopez molybdate method, A700
Format: biochemical, Listeria innocua
Conditions: synthetic reaction (donor, up to 10 mM), co-substrate 10 mM Sop2, 100 mM MOPS-NaOH pH 7.5, 30°C
Text: phosphate release, Lowry and Lopez molybdate method, A700 on Lin1839r (recombinant Lin1839 protein; 1,2-β-oligoglucan phosphorylase)

Lin1839r (recombinant Lin1839 protein; 1,2-β-oligoglucan phosphorylase) (Listeria innocua Clip11262; T2A)
Km: 1200 ± 200 µM | kcat: 43 ± 2 s⁻¹ | kcat/Km: 34000 ± 4000 M⁻¹ s⁻¹
